Experimental data: patent US11746139B2, “IL-7Rαγc binding compounds” (MEDIKINE, INC., priority 2020, dated 2023)

Experiments:
Rγc subunit = biological target: T1, Rγc subunit (Homo sapiens, UniProt P31785); assay: Phage competitive binding assay characterizing the Rγc ligand binding site; conditions: for Competition with Phage Clone SEQ ID NO: 198 (Family 1A) for binding to the Rγc subunit: phage clone 198, immobilized Rγc ECD; for Competition with Phage Clone SEQ ID NO: 224 (Family 1B) for binding to the Rγc subunit: phage clone 224, immobilized Rγc ECD; for Competition with Phage Clone SEQ ID NO: 236 (Family 2) for binding to the Rγc subunit: phage clone 236, immobilized Rγc ECD; for Competition with Phage Clone SEQ ID NO: 248 (Family 3) for binding to the Rγc subunit: phage clone 248, immobilized Rγc ECD; for Competition with Phage Clone SEQ ID NO: 266 (Family 4) for binding to the Rγc subunit: phage clone 266, immobilized Rγc ECD; for Competition with Phage Clone SEQ ID NO: 930 (Family 5) for binding to the Rγc subunit: phage clone 930, immobilized Rγc ECD
T1 construct: purchased ACRObiosystems, Inc. ILG-H5256
T1 sequence (P31785 23-254): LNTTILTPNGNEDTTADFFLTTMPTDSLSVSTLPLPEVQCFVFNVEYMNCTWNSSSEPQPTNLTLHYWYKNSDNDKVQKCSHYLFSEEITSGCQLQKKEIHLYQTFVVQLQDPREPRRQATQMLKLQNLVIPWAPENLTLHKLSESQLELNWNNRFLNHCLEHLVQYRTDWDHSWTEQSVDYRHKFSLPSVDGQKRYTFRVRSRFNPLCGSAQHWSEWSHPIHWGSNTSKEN

IL-7Rα subunit = IL-7Rα subunit (Homo sapiens, UniProt P16871); assay: Phage competitive binding assay characterizing the IL-7Rα ligand binding site
Chain of IL-7Rα subunit (P16871 21-236): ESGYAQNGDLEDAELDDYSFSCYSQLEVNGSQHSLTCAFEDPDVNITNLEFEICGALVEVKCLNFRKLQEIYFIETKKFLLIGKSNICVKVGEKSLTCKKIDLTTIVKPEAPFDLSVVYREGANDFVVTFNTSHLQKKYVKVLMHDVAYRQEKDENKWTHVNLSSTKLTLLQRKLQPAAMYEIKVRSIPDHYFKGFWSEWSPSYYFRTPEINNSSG

IL-7Rα = IL-7Rα (Homo sapiens, UniProt P16871); assay: Competition binding ELISA with bn407::NA-HRP precomplex; conditions: bn407:NA-HRP 10 nM final; read-out: Competitive Binding ELISA bn407:NA-HRP (10 nMf) IC50 M
Chain of IL-7Rα (P16871 21-236): as above

| Compound | Competition with Phage Clone SEQ ID NO: 198 (Family 1A) for binding to the Rγc subunit (Rγc subunit) | Competition with Phage Clone SEQ ID NO: 224 (Family 1B) for binding to the Rγc subunit (Rγc subunit) | Competition with Phage Clone SEQ ID NO: 236 (Family 2) for binding to the Rγc subunit (Rγc subunit) | Competition with Phage Clone SEQ ID NO: 248 (Family 3) for binding to the Rγc subunit (Rγc subunit) | Competition with Phage Clone SEQ ID NO: 266 (Family 4) for binding to the Rγc subunit (Rγc subunit) | Competition with Phage Clone SEQ ID NO: 930 (Family 5) for binding to the Rγc subunit (Rγc subunit) | IC50 (IL-7Rα) | further results |
| --- | --- | --- | --- | --- | --- | --- | --- | --- |
| R T C T E W E N V V L C W V [SEQ ID NO: 202] | +^1 (Rγc ligand competes with phage binding.) | + (Rγc ligand competes with phage binding.) | + (Rγc ligand competes with phage binding.) | + (Rγc ligand competes with phage binding.) | + (Rγc ligand competes with phage binding.) | − |  |  |
| V V C Q D W E G V E L C W Q [SEQ ID NO: 965] |  |  |  |  |  |  |  | Competition with Phage Clone SEQ ID NO: 5 (Family 1) for binding to the IL-7Rα subunit (IL-7Rα subunit; phage clone 5, immobilized IL-7Rα ECD): 0; Competition with Phage Clone SEQ ID NO: 43 (Family 3A) for binding to the IL-7Rα subunit (IL-7Rα subunit; phage clone 43, immobilized IL-7Rα ECD): 0; Competition with Phage Clone SEQ ID NO: 104 (Family 3B) for binding to the IL-7Rα subunit (IL-7Rα subunit; phage clone 104, immobilized IL-7Rα ECD): 0; Competition with Phage Clone SEQ ID NO: 313 (Family 2) for binding to the IL-7Rα subunit (IL-7Rα subunit; phage clone 313, immobilized IL-7Rα ECD): 0; Competition with Phage Clone SEQ ID NO: 965 (N/A) for binding to the IL-7Rα subunit (IL-7Rα subunit; phage clone 965, immobilized IL-7Rα ECD): 0 |
| CC[C@H](C)[C@H](N)C(=O)N1CCC[C@H]1C(=O)N[C@@H](Cc1c[nH]c2ccccc12)C(=O)N[C@H]1CSSC[C@@H](C(=O)N[C@@H](C)C(=O)N[C@@H](Cc2c[nH]c3ccccc23)C(=O)N[C@H](C(=O)N[C@@H](CCCNC(=N)N)C(=O)N[C@@H](CCC(N)=O)C(=O)N[C@@H](CCSC)C(=O)NCC(=O)NCC(=O)O)[C@@H](C)CC)NC(=O)[C@H](CCC(N)=O)NC(=O)[C@H](CC(C)C)NC(=O)CNC(=O)CNC(=O)[C@@H]2CCCN2C(=O)[C@H](CC(=O)O)NC(=O)[C@H](CC(C)C)NC(=O)[C@H]([C@@H](C)O)NC1=O [SEQ ID NO: 426, I P W C T L D P G G L Q C A W I R Q M] |  |  |  |  |  |  | 378 nM |  |
| CC[C@H](C)[C@H](N)C(=O)N1CCC[C@H]1C(=O)N[C@@H](Cc1c[nH]c2ccccc12)C(=O)N[C@H]1CSSC[C@@H](C(=O)N[C@@H](C)C(=O)N[C@@H](Cc2c[nH]c3ccccc23)C(=O)N[C@@H](CC(C)C)C(=O)N[C@@H](CCCNC(=N)N)C(=O)N[C@@H](C)C(=O)N[C@@H](CCSC)C(=O)NCC(=O)NCC(=O)O)NC(=O)[C@H](CCC(N)=O)NC(=O)[C@H](CC(C)C)NC(=O)CNC(=O)CNC(=O)[C@@H]2CCCN2C(=O)[C@H](CC(=O)O)NC(=O)[C@H](CC(C)C)NC(=O)[C@H]([C@@H](C)O)NC1=O [SEQ ID NO: 431, I P W C T L D P G G L Q C A W L R A M] |  |  |  |  |  |  | 521 nM |  |
| CC[C@H](C)[C@H](N)C(=O)N1CCC[C@H]1C(=O)N[C@@H](Cc1c[nH]c2ccccc12)C(=O)N[C@H]1CSSC[C@@H](C(=O)N[C@@H](C)C(=O)N[C@@H](Cc2c[nH]c3ccccc23)C(=O)N[C@@H](CC(C)C)C(=O)N[C@@H](CCCNC(=N)N)C(=O)N[C@@H](C)C(=O)N[C@@H](C)C(=O)NCC(=O)NCC(=O)O)NC(=O)[C@H](CCC(N)=O)NC(=O)[C@H](CC(C)C)NC(=O)CNC(=O)CNC(=O)[C@@H]2CCCN2C(=O)[C@H](CC(=O)O)NC(=O)[C@H](CC(C)C)NC(=O)[C@H]([C@@H](C)O)NC1=O [SEQ ID NO: 433, I P W C T L D P G G L Q C A W L R A A] |  |  |  |  |  |  | 1070 nM |  |
| S L L K C Y N A S T C A S V F [SEQ ID NO: 930] | −^2 | − | − | − | − | + (Rγc ligand competes with phage binding.) |  |  |
| CC[C@H](C)[C@H](N)C(=O)N1CCC[C@H]1C(=O)N[C@@H](Cc1c[nH]c2ccccc12)C(=O)N[C@H]1CSSC[C@@H](C(=O)N[C@@H](C)C(=O)N[C@@H](Cc2c[nH]c3ccccc23)C(=O)N[C@@H](C)C(=O)N[C@@H](CCCNC(=N)N)C(=O)N[C@@H](CCC(N)=O)C(=O)N[C@@H](CCSC)C(=O)NCC(=O)NCC(=O)O)NC(=O)[C@H](CCC(N)=O)NC(=O)[C@H](CC(C)C)NC(=O)CNC(=O)CNC(=O)[C@@H]2CCCN2C(=O)[C@H](CC(=O)O)NC(=O)[C@H](CC(C)C)NC(=O)[C@H]([C@@H](C)O)NC1=O [SEQ ID NO: 425, I P W C T L D P G G L Q C A W A R Q M] |  |  |  |  |  |  | 1850 nM |  |
| CC[C@H](C)[C@H](N)C(=O)N1CCC[C@H]1C(=O)N[C@@H](Cc1c[nH]c2ccccc12)C(=O)N[C@H]1CSSC[C@@H](C(=O)N[C@@H](C)C(=O)N[C@@H](Cc2c[nH]c3ccccc23)C(=O)N[C@@H](CC(C)C)C(=O)N[C@@H](CCCNC(=N)N)C(=O)N[C@@H](CCC(N)=O)C(=O)N[C@@H](C)C(=O)NCC(=O)NCC(=O)O)NC(=O)[C@H](CCC(N)=O)NC(=O)[C@H](CC(C)C)NC(=O)CNC(=O)CNC(=O)[C@@H]2CCCN2C(=O)[C@H](CC(=O)O)NC(=O)[C@H](CC(C)C)NC(=O)[C@H]([C@@H](C)O)NC1=O [SEQ ID NO: 432, I P W C T L D P G G L Q C A W L R Q A] |  |  |  |  |  |  | 942 nM |  |
| CC[C@H](C)[C@H](N)C(=O)N1CCC[C@H]1C(=O)N[C@@H](Cc1c[nH]c2ccccc12)C(=O)N[C@H]1CSSC[C@@H](C(=O)N[C@@H](C)C(=O)N[C@@H](Cc2c[nH]c3ccccc23)C(=O)N[C@@H](CC(C)C)C(=O)N[C@@H](Cc2c[nH]cn2)C(=O)N[C@@H](CCC(N)=O)C(=O)N[C@@H](CCSC)C(=O)NCC(=O)NCC(=O)O)NC(=O)[C@H](CCC(N)=O)NC(=O)[C@H](CC(C)C)NC(=O)CNC(=O)CNC(=O)[C@@H]2CCCN2C(=O)[C@H](CC(=O)O)NC(=O)[C@H](CC(C)C)NC(=O)[C@H]([C@@H](C)O)NC1=O [SEQ ID NO: 430, I P W C T L D P G G L Q C A W H K Q M] |  |  |  |  |  |  | 682 nM |  |
| M C W L E W G E W V G S C L [SEQ ID NO: 236] | + (Rγc ligand competes with phage binding.) | + (Rγc ligand competes with phage binding.) | + (Rγc ligand competes with phage binding.) | + (Rγc ligand competes with phage binding.) | + (Rγc ligand competes with phage binding.) | − |  |  |
| Y D C R I A Q V G E L C D L [SEQ ID NO: 58, IL-2Rβ Ligand, reference compound] | − | − | − | − | − | − |  | Competition for binding to the binding site with the group of Rγc ligands (Rγc subunit): does not compete |
| D C S M W E J G V E L C W [SEQ ID NO: 224] | + (Rγc ligand competes with phage binding.) | + (Rγc ligand competes with phage binding.) | + (Rγc ligand competes with phage binding.) | + (Rγc ligand competes with phage binding.) | + (Rγc ligand competes with phage binding.) | − |  |  |
